According to US20070166286:

Key:
Assay in all cases: cell_activity
[1] = test system: LBD-Cre-LBD (bacteriophage P1); conditions: type B provirus pk8-ad4626, +tamoxifen; 0.05 without
[2] = test system: Cre-LBD (bacteriophage P1); conditions: type B provirus pk8-ad4332, +tamoxifen; 4.1 without
[3] = test system: Cre recombinase (bacteriophage P1); conditions: Ad2HCRGFP/EBV in HepG2, 72 h post infection, moi 1000
FLPe (thermostable FLP) = conditions: substrate plasmid ad2879, 293 cells
FLP recombinase = conditions: substrate plasmid ad2879, 293 cells; 4.9 in Table 2 with vector control

**Q.** What does the source list for loxP site?
**A.** activity (arbitrary GFP intensity) [1]: 4.2; activity (arbitrary GFP intensity) [2]: 6; activity (% genomes circularized (or more)) [3]: 95

**Q.** Which activity (mean GFP intensity) (FLPe (thermostable FLP)) does the source give for FRT site here?
**A.** 2.39

**Q.** What about the activity (mean GFP intensity) (FLP recombinase) of the same substance?
**A.** 0.01
